Values belong to the binder of their own block, whether it stands above or below them. *1 amine or outer side, *2 acyl side, *3 side chain or, on linkers, in order; H or OH if unused. Bridges are numbered along the chain shown (N, C = ends). [ ]: non-standard residue; d: D form. The star is where a group is joined. dE(AGLU) = D-glutamic acid bearing 1-amino-1-deoxy-D-glucitol; Pro(trans-4-NH2) = O=C([C@@H]1C[C@@H](N[*:3])CN1[*:1])[*:2]; DOTA = O=C(O)CN1CCN(CC(=O)O)CCN(CC(=O)*)CCN(CC(=O)O)CC1; 2Lut = 2,6-lutidylidene bridge between two thiols; Trp(5-Cl) = N[C@@H](Cc1c[nH]c2ccc(Cl)cc12)C(=O)O; Pyridine(2,6-diCH2) = c1cc(C[*:1])nc(C[*:2])c1; APAc = 4-amino-1-carboxymethylpiperidine; Glutaryl = O=C(CCCC(=O)[*:2])[*:1]; AGLU = 1-amino-1-deoxy-D-glucitol; Hyp = O=C(O)[C@@H]1C[C@@H](O)CN1; dGlu(AGLU) = not defined here; glu(AGLU) = not defined here; hSer = N[C@@H](CCO)C(=O)O; Api = NC1(C(=O)O)CCNCC1
Key:
[1] = target: human gastric inhibitory polypeptide receptor (human GIPR) (human) (UniProt P48546); assay: radioligand binding assay, 111In-labeled compound on CHO cells expressing GIPR, 6 h 37 °C; pKD category A = pKD > 9.5
[2] = target: biotinylated extracellular domain of the human GIP receptor (bioGIPR) (human) (UniProt P48546); assay: SPR single cycle kinetics, bioGIPR captured on chip; category B: pKD 8.1-9.0
[3] = target: human Gastric Inhibitory Peptide Receptor (human) (UniProt P48546); assay: FACS competition with GIP-057 on CHO-K1-hGIPR cells; pIC50 category B: 7.1-8.0
[4] = target: biotinylated extracellular domain of the human GIP receptor (bioGIPR) (human) (UniProt P48546); assay: SPR single cycle kinetics, bioGIPR captured on chip; category D: t1/2 <2.0 min
dog GIPR (dog) = assay: radioligand binding assay, 111In-labeled compound on CHO-VGT cells expressing dog GIPR, 6 h 37 °C; pKD category A = pKD > 9.5
mouse GIPR (mouse) = mouse GIPR (mouse) (UniProt Q0P543); assay: radioligand binding assay, 111In-labeled compound on CHO-VGT cells expressing mouse GIPR, 6 h 37 °C; pKD category C = pKD < 9.0
rat GIPR (rat) = rat GIPR (rat) (UniProt P43219); assay: radioligand binding assay, 111In-labeled compound on CHO-VGT cells expressing rat GIPR, 6 h 37 °C; pKD category B = pKD between 9.0 and 9.5
Sequence of rat GIPR (rat) (P43219 19-455): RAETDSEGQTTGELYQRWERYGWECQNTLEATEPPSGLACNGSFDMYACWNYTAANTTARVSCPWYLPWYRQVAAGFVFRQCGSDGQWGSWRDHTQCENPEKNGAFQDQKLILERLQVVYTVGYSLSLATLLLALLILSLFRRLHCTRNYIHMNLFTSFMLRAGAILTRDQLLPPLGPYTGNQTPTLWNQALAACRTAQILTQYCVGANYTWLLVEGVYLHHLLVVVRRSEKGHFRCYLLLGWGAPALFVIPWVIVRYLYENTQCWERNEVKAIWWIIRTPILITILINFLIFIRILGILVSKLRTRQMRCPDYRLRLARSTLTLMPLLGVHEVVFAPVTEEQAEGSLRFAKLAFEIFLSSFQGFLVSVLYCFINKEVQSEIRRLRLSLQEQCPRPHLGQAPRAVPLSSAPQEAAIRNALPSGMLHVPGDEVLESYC

Sequence of human Gastric Inhibitory Peptide Receptor (human) (P48546 22-466 limits assumed): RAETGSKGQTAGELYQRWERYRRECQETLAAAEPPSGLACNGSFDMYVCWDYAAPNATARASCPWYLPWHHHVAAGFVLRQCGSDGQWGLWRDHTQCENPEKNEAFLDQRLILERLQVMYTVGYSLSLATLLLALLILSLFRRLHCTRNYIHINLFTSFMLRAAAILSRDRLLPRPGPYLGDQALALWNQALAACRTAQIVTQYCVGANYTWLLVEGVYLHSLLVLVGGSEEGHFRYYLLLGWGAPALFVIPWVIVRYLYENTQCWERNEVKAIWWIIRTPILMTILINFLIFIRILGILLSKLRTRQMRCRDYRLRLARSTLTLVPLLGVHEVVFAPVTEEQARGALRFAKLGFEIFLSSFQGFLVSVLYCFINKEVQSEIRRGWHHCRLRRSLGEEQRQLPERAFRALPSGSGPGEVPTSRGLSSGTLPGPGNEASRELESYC
Sequence of biotinylated extracellular domain of the human GIP receptor (bioGIPR) (human) (P48546 24-138 limits assumed): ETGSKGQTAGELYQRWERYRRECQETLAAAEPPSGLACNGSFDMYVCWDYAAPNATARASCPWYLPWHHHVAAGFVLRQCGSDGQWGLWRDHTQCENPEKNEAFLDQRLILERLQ
Sequence of human gastric inhibitory polypeptide receptor (human GIPR) (human) (P48546 22-466 limits assumed): as the sequence (P48546 22-466 limits assumed) above
Sequence of mouse GIPR (mouse) (Q0P543 19-460): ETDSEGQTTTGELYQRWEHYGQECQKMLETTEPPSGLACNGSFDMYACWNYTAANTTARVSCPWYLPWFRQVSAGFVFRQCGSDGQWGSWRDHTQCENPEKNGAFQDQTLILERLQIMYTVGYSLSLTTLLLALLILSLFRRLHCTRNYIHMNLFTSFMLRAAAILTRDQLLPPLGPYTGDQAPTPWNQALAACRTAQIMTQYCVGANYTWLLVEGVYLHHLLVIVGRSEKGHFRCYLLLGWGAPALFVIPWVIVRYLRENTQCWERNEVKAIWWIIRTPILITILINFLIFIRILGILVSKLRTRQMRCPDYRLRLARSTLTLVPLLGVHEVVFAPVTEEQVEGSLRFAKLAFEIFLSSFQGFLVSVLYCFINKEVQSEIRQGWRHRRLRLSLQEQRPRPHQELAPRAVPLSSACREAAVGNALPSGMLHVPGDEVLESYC
Sequence of dog GIPR (dog) (chain, as listed by the source limits assumed, form in doubt): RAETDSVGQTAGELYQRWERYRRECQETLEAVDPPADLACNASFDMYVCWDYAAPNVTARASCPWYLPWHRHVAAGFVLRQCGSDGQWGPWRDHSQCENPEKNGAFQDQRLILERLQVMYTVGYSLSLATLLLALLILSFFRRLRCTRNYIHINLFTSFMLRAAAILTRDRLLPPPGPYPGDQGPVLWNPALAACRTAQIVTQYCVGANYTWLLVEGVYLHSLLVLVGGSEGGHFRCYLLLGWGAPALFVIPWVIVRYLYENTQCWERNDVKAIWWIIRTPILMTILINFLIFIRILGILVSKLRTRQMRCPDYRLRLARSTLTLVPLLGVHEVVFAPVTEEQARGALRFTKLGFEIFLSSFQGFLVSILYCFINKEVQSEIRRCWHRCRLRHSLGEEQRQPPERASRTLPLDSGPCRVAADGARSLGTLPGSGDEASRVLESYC

pKD [1]: > 9.5 pkd
B1: 111In-labeled AGLU-Glutar-Asp-Trp-5Clw-Hyp-Glu-leu-[Cys(2Lut)-Apc(DOTA)-Leu-Ile-Cys]-APAc-glu(AGLU)-NH2 (111In-GIP-002) (peptide)
peptide: {AGLU-Glutaryl}-DW[Trp(5-Cl)][Hyp]E[dL]C[Api](DOTA)LIC-{APAc-dGlu(AGLU)-NH2}
modifications: linker 7-11 via Pyridine(2,6-diCH2); reading uncertain; also: DOTA complexed with 111In

pKD [1]: > 9.5 pkd | pKD (dog GIPR (dog)): > 9.5 pkd | pKD (mouse GIPR (mouse)): < 9 pkd | pKD (rat GIPR (rat)): 9 to 9.5 pkd
Binder: {AGLU-Glutaryl}-DW[Trp(5-Cl)][Pro(trans-4-NH2)]E[dL]C[Api](DOTA)LIC-{APAc-dE(AGLU)-NH2} (linker 7-11 via Pyridine(2,6-diCH2); also: DOTA complexed with 111In)

Continued, binder first:

B2: AGLU-Glutar-APAc-Ser-Trp-5Clw-Tap(AGLU-Glutar)-Hse-leu-[Cys(2Lut)-Apc(DOTA)-Leu-Ile-Cys]-APAc-glu(AGLU)-NH2 (peptide)
peptide: SWXXXXCXLIC
modifications: AGLU-Glutar-APAc; 5Clw; Tap(AGLU-Glutar); Hse; D-leu; Apc(DOTA); 2Lut bridge Cys-Cys; APAc; D-glu(AGLU); C-term NH2
pKD [2]: 8.1 to 9 pkd | pIC50 [3]: 7.1 to 8 pic50 | t1/2 [4]: < 2 min

Binder: {AGLU-Glutaryl-APAc}-[hSer]W[Trp(5-Cl)][Hyp]E[dL]C[Api](DOTA)LIC-{APAc-dE(AGLU)-NH2} (linker 7-11 via Pyridine(2,6-diCH2)) [AGLU-Glutar-APAc-Hse-Trp-5Clw-Hyp-Glu-leu-[Cys(2Lut)-Apc(DOTA)-Leu-Ile-Cys]-APAc-glu(AGLU)-NH2]
pKD [2]: 8.1 to 9 pkd | pIC50 [3]: 7.1 to 8 pic50 | t1/2 [4]: < 2 min

Binder: {AGLU-Glutaryl-APAc}-SW[Trp(5-Cl)][Pro(trans-4-NH2)][hSer][dL]C[Api](DOTA)LIC-{APAc-glu(AGLU)-NH2} (linker 7-11 via 2Lut; reading uncertain) [AGLU-Glutar-APAc-Ser-Trp-5Clw-Tap-Hse-leu-[Cys(2Lut)-Apc(DOTA)-Leu-Ile-Cys]-APAc-glu(AGLU)-NH2]
pKD [2]: 8.1 to 9 pkd | pIC50 [3]: 7.1 to 8 pic50 | t1/2 [4]: < 2 min

— patent US20250296971A1, “GASTRIC INHIBITORY PEPTIDE RECEPTOR LIGANDS” (priority 2021, published 2025)
